Measurements reported in patent US20220162619.

System: T1, synthetic model peptide substrate PLVQ conjugated with 7-amino-4-methylcoumarin (AMC)
T1 sequence: PLVQ

Substance	enzymatic (proteolytic) activity: hydrolysis of PLVQ-AMC, fluorescence of free AMC
recombinant truncated triticain-alpha with a C-terminal polyhistidine sequence, expressed in soluble form in E. coli	significantly exceeded the activity of the truncated triticain-alpha preparation 6HIS-Triticain-α-GM, obtained in an insoluble form, as well as that of papain
recombinant truncated triticain-alpha with an N-terminal polyhistidine sequence, expressed in soluble form in E. coli	significantly exceeded the activity of the truncated triticain-alpha preparation 6HIS-Triticain-α-GM, obtained in an insoluble form, as well as that of papain
